{"source": "paper PMC12363188", "about": "(2025)", "binders": {"B1": {"name": "Rhinolophus pusillus bat ACE2 ectodomain (residues 18 to 615) (domain or fragment)", "chain": "QSITEDKAKKFLNDFNSEAEDLSYQSSLASWDYNTNISDENVQKMDEAGAKWSAFYEEQSKIAKNYPLEEIQTDIVKRQLQILQQSGSPVLSEDKSKRLNSILNAMSTIYSTGKVCKPNNPQECLLLEPGLDNIMGTSKDYHERLWAWEGWRAEVGKQLRPLYEEYVVLKNEMARGYHYEDYGDYWRRDYETEESSGPGYSRDQLMKDVDRIFTEIKPLYEHLHAYVRAKLMDTYPLHISPTGCLPAHLLGDMWGRFWTNLYPLTVPFGQKPNIDVTDEMVKQGWDANRIFKEAEKFFVSVGLPNMTEGFWNNSMLTEPGDGRKVVCHPTAWDLGKGDFRIKMCTKVTMEDFLTAHHEMGHIQYDMAYASQPYLLRNGANEGFHEAVGEVMSLSVATPKHLKTMGLLSPDFREDDETEINFLLKQALNIVGTLPFTYMLEKWRWMVFKGEIPKEEWMKKWWEMKREIVGVVEPVPHDETYCDPASLFHVANDYSFIRYYTRTIFEFQFHEALCRIAQHNGPLHKCDISNSTDAGKKLHQMLSVGKSQAWTKTLEDIVGSRNMDVGPLLRYFKPLYTWLQEQSRKSYVGWNTDWSPYSD"}}, "key": {"[1]": {"target": "T1, SARS-CoV-2 S-RBD (residues 330 to 530) (SARS-CoV-2, UniProt P0DTC2 330-530)", "test": "SPR"}, "[2]": {"target": "T1, SARS-CoV-2 S-RBD (residues 330 to 530)", "test": "SPR", "remark": "listed apart in the source"}}}
{"binder": "B1", "values": [{"measurement": "koff", "setting": "[1]", "result": 0.00152, "unit": "s⁻¹"}, {"measurement": "Kd", "setting": "[2]", "result": 45.3, "unit": "nM"}]}
